# Non-standard residues stand in square brackets, D forms with d. No end group written: not given here. Oic = O=C(O)[C@@H]1C[C@@H]2CCCC[C@@H]2N1; Phe(4-Cl) = N[C@@H](Cc1ccc(Cl)cc1)C(=O)O; dPhe(4-Cl) = N[C@H](Cc1ccc(Cl)cc1)C(=O)O; d1Nal = N[C@H](Cc1cccc2ccccc12)C(=O)O; d2Nal = N[C@H](Cc1ccc2ccccc2c1)C(=O)O; NMeR = CN[C@@H](CCCNC(=N)N)C(=O)O; hArg = N=C(N)NCCCC[C@H](N)C(=O)O; β3hR = N=C(N)NCCC[C@H](N)CC(=O)O; Cha = N[C@@H](CC1CCCCC1)C(=O)O; β3hQ = NC(=O)CC[C@H](N)CC(=O)O; β3hN = NC(=O)C[C@H](N)CC(=O)O; NMeV = CN[C@H](C(=O)O)C(C)C; β3hK = NCCCC[C@H](N)CC(=O)O; β3hP = O=C(O)C[C@@H]1CCCN1; β3hS = N[C@@H](CO)CC(=O)O; Nle = CCCC[C@H](N)C(=O)O; Orn = NCCC[C@H](N)C(=O)O; BPhe = β-phenylalanine; Aib = CC(C)(N)C(=O)O; BLeu = β-leucine; βAla = NCCC(=O)O
# T1: human APJ receptor (human, UniProt P35414 1-380)
# T1 sequence (looked up): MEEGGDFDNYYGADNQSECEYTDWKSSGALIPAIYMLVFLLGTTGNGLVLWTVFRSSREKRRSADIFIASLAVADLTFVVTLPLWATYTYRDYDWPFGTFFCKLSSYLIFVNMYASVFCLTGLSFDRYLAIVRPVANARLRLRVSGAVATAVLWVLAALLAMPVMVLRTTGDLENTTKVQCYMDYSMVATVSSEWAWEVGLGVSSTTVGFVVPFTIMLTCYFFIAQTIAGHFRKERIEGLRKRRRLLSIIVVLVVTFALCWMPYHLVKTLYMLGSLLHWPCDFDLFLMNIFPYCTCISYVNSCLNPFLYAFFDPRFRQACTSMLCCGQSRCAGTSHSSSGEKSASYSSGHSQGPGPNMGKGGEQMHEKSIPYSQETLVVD
# T2: rat APJ receptor (rat, UniProt Q9JHG3 1-377)
# T2 sequence (looked up): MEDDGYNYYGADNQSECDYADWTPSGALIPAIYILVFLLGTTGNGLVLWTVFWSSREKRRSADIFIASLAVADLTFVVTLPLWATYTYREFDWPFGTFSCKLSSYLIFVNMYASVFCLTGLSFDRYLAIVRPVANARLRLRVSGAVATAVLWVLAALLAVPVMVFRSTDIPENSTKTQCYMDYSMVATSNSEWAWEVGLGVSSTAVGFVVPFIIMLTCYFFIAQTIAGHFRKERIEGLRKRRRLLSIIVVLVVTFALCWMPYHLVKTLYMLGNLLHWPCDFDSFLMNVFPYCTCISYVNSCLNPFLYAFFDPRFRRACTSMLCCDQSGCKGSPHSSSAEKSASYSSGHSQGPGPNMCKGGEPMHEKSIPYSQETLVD
# B1: apelin polypeptide SEQ ID NO: 25 (peptide)
# peptide: Ac-[hArg]Q[dR]P[NMeR][Cha]SHKG[Oic][Nle][d1Nal]-OH
# SMILES: CCCC[C@H](NC(=O)[C@@H]1C[C@@H]2CCCC[C@@H]2N1C(=O)CNC(=O)[C@H](CCCCN)NC(=O)[C@H](Cc1c[nH]cn1)NC(=O)[C@H](CO)NC(=O)[C@H](CC1CCCCC1)NC(=O)[C@H](CCCNC(=N)N)N(C)C(=O)[C@@H]1CCCN1C(=O)[C@@H](CCCNC(=N)N)NC(=O)[C@H](CCC(N)=O)NC(=O)[C@H](CCCCNC(=N)N)NC(C)=O)C(=O)N[C@H](Cc1cccc2ccccc12)C(=O)O
# Molecular target: T1, human APJ receptor
# Experiment: cell-based or functional assay
row,EC50 Human APJ Receptor [nM],Binder
1,0.116,Ac-[Orn]F[hArg][hArg][BLeu][hArg]P[hArg][Cha]SHKG[Oic][Nle]P[Phe(4-Cl)]-OH [apelin polypeptide SEQ ID NO: 29]
2,0.949,[Orn]F[hArg][hArg]Q[hArg]P[hArg][Cha]S[βAla]KG[Oic][Nle]P[Phe(4-Cl)] [apelin polypeptide SEQ ID NO: 700]
3,1.54,[Orn]F[hArg][hArg]Q[hArg]P[hArg][Cha]SHKG[Oic][Nle][d2Nal] [apelin polypeptide SEQ ID NO: 713]
4,0.0918,[Orn][BPhe][hArg][hArg]Q[hArg]P[hArg][Cha]SHKG[Oic][Nle]P[Phe(4-Cl)] [apelin polypeptide SEQ ID NO: 687]
5,0.785,[Orn]F[hArg][hArg]Q[hArg]P[hArg][Cha]SHKG[Oic][Nle][βAla][Phe(4-Cl)] [apelin polypeptide SEQ ID NO: 710]
6,0.453,[Orn]F[hArg][hArg][β3hN][hArg]P[hArg][Cha]SHKG[Oic][Nle]P[Phe(4-Cl)] [apelin polypeptide SEQ ID NO: 691]
7,0.555,[Orn]F[hArg][hArg]Q[hArg]P[hArg][Cha]SHKG[Oic][Nle][β3hP][Phe(4-Cl)] [apelin polypeptide SEQ ID NO: 709]
8,0.114,[Orn]F[hArg][β3hR]Q[hArg]P[hArg][Cha]SHKG[Oic][Nle]P[Phe(4-Cl)] [apelin polypeptide SEQ ID NO: 689]
9,0.316,[Orn]F[hArg][hArg]Q[hArg]P[hArg][Cha]SH[β3hK]G[Oic][Nle]P[Phe(4-Cl)] [apelin polypeptide SEQ ID NO: 701]
10,0.723,[Orn]F[hArg][hArg]Q[hArg]P[hArg][Cha]SHK[Aib][Oic][Nle]P[Phe(4-Cl)] [apelin polypeptide SEQ ID NO: 681]
11,3.63,[Orn]F[hArg][hArg]Q[hArg]P[hArg][Cha]S[NMeV]KG[Oic][Nle]P[Phe(4-Cl)] [apelin polypeptide SEQ ID NO: 679]
12,7.87,Ac-[hArg]Q[dR]P[NMeR][Cha]SHKG[Oic][Nle]P[dPhe(4-Cl)]-OH [apelin polypeptide SEQ ID NO: 24]
13,0.111,[Orn]F[hArg][hArg][β3hQ][hArg]P[hArg][Cha]SHKG[Oic][Nle]P[Phe(4-Cl)] [apelin polypeptide SEQ ID NO: 690]
14,1.99,[Orn]F[hArg][hArg]Q[hArg]P[hArg][Cha]SHKG[β3hP][Nle]P[Phe(4-Cl)] [apelin polypeptide SEQ ID NO: 706]
15,0.539,[Orn]F[hArg][hArg]Q[hArg]P[hArg][Cha][β3hS]HKG[Oic][Nle]P[Phe(4-Cl)] [apelin polypeptide SEQ ID NO: 698]
16,1.74,B1
17,0.458,[Orn]F[hArg][hArg]Q[hArg][β3hP][hArg][Cha]SHKG[Oic][Nle]P[Phe(4-Cl)] [apelin polypeptide SEQ ID NO: 694]

# Molecular target: T2, rat APJ receptor
# Experiment: cell-based or functional assay
row,EC50 Rat APJ Receptor [nM],Binder
1,0.301,Ac-[Orn]F[hArg][hArg][BLeu][hArg]P[hArg][Cha]SHKG[Oic][Nle]P[Phe(4-Cl)]-OH [apelin polypeptide SEQ ID NO: 29]
2,3.11,[Orn]F[hArg][hArg]Q[hArg]P[hArg][Cha]S[βAla]KG[Oic][Nle]P[Phe(4-Cl)] [apelin polypeptide SEQ ID NO: 700]
3,1.14,[Orn]F[hArg][hArg]Q[hArg]P[hArg][Cha]SHKG[Oic][Nle][d2Nal] [apelin polypeptide SEQ ID NO: 713]
4,0.175,[Orn][BPhe][hArg][hArg]Q[hArg]P[hArg][Cha]SHKG[Oic][Nle]P[Phe(4-Cl)] [apelin polypeptide SEQ ID NO: 687]
5,1.79,[Orn]F[hArg][hArg]Q[hArg]P[hArg][Cha]SHKG[Oic][Nle][βAla][Phe(4-Cl)] [apelin polypeptide SEQ ID NO: 710]
6,0.424,[Orn]F[hArg][hArg][β3hN][hArg]P[hArg][Cha]SHKG[Oic][Nle]P[Phe(4-Cl)] [apelin polypeptide SEQ ID NO: 691]
7,0.862,[Orn]F[hArg][hArg]Q[hArg]P[hArg][Cha]SHKG[Oic][Nle][β3hP][Phe(4-Cl)] [apelin polypeptide SEQ ID NO: 709]
8,0.349,[Orn]F[hArg][β3hR]Q[hArg]P[hArg][Cha]SHKG[Oic][Nle]P[Phe(4-Cl)] [apelin polypeptide SEQ ID NO: 689]
9,0.879,[Orn]F[hArg][hArg]Q[hArg]P[hArg][Cha]SH[β3hK]G[Oic][Nle]P[Phe(4-Cl)] [apelin polypeptide SEQ ID NO: 701]
10,1.3,[Orn]F[hArg][hArg]Q[hArg]P[hArg][Cha]SHK[Aib][Oic][Nle]P[Phe(4-Cl)] [apelin polypeptide SEQ ID NO: 681]
11,33,[Orn]F[hArg][hArg]Q[hArg]P[hArg][Cha]S[NMeV]KG[Oic][Nle]P[Phe(4-Cl)] [apelin polypeptide SEQ ID NO: 679]
12,134,Ac-[hArg]Q[dR]P[NMeR][Cha]SHKG[Oic][Nle]P[dPhe(4-Cl)]-OH [apelin polypeptide SEQ ID NO: 24]
13,0.183,[Orn]F[hArg][hArg][β3hQ][hArg]P[hArg][Cha]SHKG[Oic][Nle]P[Phe(4-Cl)] [apelin polypeptide SEQ ID NO: 690]
14,4.39,[Orn]F[hArg][hArg]Q[hArg]P[hArg][Cha]SHKG[β3hP][Nle]P[Phe(4-Cl)] [apelin polypeptide SEQ ID NO: 706]
15,0.734,[Orn]F[hArg][hArg]Q[hArg]P[hArg][Cha][β3hS]HKG[Oic][Nle]P[Phe(4-Cl)] [apelin polypeptide SEQ ID NO: 698]
16,53.7,B1
17,0.602,[Orn]F[hArg][hArg]Q[hArg][β3hP][hArg][Cha]SHKG[Oic][Nle]P[Phe(4-Cl)] [apelin polypeptide SEQ ID NO: 694]

# Reference: US10941182 (Amgen, dated 2021)
